Measured values from article doi:10.1101/2020.12.08.416511 (bioRxiv, 2020).

Target: human β-cardiac myosin subfragment 1 heavy chain (amino acids 1-841) (human, UniProt P12883 1-841)
Experiment: pull-down

human β-cardiac myosin subfragment 1 heavy chain (amino acids 1-841), sequence (P12883 1-841): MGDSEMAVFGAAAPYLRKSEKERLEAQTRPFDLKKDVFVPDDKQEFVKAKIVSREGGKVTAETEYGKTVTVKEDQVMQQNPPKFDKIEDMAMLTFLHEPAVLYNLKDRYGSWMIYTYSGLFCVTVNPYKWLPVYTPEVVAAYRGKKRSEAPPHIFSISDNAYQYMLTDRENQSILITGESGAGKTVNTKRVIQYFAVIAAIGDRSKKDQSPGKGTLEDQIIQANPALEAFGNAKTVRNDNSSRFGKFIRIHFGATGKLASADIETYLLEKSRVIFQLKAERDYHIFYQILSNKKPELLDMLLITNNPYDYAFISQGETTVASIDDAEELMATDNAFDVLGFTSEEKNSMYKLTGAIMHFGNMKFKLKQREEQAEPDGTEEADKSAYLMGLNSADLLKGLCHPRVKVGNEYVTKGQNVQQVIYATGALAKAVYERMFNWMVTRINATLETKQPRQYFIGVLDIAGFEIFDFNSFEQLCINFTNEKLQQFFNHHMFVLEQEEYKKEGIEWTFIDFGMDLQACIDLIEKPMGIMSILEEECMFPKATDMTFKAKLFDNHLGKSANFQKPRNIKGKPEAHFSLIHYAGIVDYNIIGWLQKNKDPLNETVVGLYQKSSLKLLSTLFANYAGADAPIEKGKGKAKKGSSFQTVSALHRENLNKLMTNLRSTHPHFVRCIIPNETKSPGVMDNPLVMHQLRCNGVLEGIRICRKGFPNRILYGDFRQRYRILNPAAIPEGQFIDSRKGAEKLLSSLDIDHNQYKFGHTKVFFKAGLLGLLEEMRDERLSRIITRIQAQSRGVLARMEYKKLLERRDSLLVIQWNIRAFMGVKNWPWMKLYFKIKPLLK

B1: Alexa 488-labeled human ventricular cardiac regulatory light chain (V105C) (natural protein)
chain: MAPKKAKKRAGGANSNVFSMFEQTQIQEFKEAFTIMDQNRDGFIDKNDLRDTFAALGRVNVKNEEIDEMIKEAPGPINFTVFLTMFGEKLKGADPEETILNAFKCFDPEGKGVLKADYVREMLTTQAERFSKEEVDQMFAAFPPDVTGNLDYKNLVHIITHGEEKD
modifications: Alexa Fluor 488 C5 maleimide on the single reactive cysteine at position 105
With B1 the “stoichiometry N” value was 1 A488RLC per M2β-S1.
